Assay results taken from US20250052751A1 (published 2025).

Biological target: T1, MHC class II I-A^b molecules purified by affinity chromatography (;mouse, UniProt P14434 24-218; P14483 28-226)
T1 MHC II alpha: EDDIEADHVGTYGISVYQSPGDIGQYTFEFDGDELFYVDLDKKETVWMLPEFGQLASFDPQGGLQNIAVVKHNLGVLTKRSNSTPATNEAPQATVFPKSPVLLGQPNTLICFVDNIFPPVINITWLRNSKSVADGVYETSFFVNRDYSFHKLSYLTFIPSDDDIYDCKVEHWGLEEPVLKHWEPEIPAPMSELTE
T1 MHC II beta: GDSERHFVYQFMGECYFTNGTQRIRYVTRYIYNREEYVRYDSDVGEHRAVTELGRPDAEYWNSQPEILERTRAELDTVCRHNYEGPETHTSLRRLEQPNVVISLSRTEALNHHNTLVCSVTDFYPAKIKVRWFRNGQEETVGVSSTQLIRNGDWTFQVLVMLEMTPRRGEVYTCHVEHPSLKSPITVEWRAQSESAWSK
Assay: competitive peptide binding assay on purified I-Ab

Binder | IC50
LYLVTPPSVVGGLGVT [AQP4 p133-149] | 184 nM
HLFAINYTGASMNPARSFGP [AQP4 201-220] | 28 nM
VAFKGVWTQAFW [AQP4 p24-35] | 4880 nM
LFAINYTGASMNPARSF [AQP4 p202-218] | 16 nM
GILYLVTPPSVVGGLGVTMV [AQP4 131-150] | 112 nM
